This passage reports Kd results from article PMC12474298 (Viruses, 2025).

Where no end group is shown, it is not given here.

The target of the test is mouse importin α2 lacking the importin-β binding domain (mouse IMPα2ΔIBB) (mouse, UniProt P52293 70-529). Nature of the test: fluorescence polarisation. The following applies: both partners purified. (Fluorescence polarisation rises when a labelled molecule tumbles more slowly, as on binding a larger partner.)

B1: HaHV1 UL36h NLS peptide (residues 1491-1500), FITC/Ahx-labelled (peptide)
peptide: ETKKRRRILE
modifications: not fully specified (N-terminus); also: FITC/Ahx-labelled, position not given here
notes: also called HaHV1 NLS; HaHV1-NLS
Consider B1, for which binding was put at a Kd of 609 nM.
